Assays:
[1] = target: T1, mFc tagged human LAG3 ECD recombinant protein (human, UniProt P18627 23-450); experiment: competitive ELISA: mFc tagged human LAG3 ECD binding to plate coated LSECtin ECD
T1 construct: extracellular domain; purchased from Biointron; not shown: mouse IgG Fc (mFc) tag
T1 sequence (looked up): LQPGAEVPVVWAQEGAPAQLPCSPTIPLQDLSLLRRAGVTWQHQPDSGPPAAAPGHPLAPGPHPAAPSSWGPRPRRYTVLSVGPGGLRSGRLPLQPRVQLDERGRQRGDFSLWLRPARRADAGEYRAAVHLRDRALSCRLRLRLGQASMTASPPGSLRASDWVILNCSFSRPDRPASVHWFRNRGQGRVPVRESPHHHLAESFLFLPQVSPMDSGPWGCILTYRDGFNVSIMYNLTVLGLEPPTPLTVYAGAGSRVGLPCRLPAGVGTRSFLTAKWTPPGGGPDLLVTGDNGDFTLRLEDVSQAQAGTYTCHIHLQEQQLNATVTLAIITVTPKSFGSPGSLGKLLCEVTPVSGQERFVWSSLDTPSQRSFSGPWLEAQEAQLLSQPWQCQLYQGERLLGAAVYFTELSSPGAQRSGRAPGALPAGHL
Procedure: Activity of the purified chimeric antibodies to block LAG3 and LSECtin interaction was determined by competitive ELISA assay. […] After washing, HRP labeled anti-mouse Fc 2nd antibody (Sigma) was added and incubated at 37° C. for 1 hour. Then, 100 μl/well of TMB solution (Biotechnology) was added. After incubation for 15 minutes at room temperature, the reaction was stopped by the addition of 50 μl of 1N HCl. OD 450 nm was read.

[2] = target: T2, human LAG3 (form used in Octet, Biacore and HDX-MS not given) (human, UniProt P18627 23-450, limits assumed); experiment: SPR (Biacore), 1:1 fit
T2 sequence (looked up): T1 sequence (looked up)
Procedure: The association and dissociation curves were fit with 1:1 binding model, and the Ka/Kd/KD values for each antibody were calculated.

[3] = target: T3, human LAG3, full length, stably expressed on cells (human, UniProt P18627 23-525); experiment: FACS on 293F cells stably expressing human LAG3
T3 construct: whole, on cells; also called CHOK1-human LAG3
T3 sequence (looked up): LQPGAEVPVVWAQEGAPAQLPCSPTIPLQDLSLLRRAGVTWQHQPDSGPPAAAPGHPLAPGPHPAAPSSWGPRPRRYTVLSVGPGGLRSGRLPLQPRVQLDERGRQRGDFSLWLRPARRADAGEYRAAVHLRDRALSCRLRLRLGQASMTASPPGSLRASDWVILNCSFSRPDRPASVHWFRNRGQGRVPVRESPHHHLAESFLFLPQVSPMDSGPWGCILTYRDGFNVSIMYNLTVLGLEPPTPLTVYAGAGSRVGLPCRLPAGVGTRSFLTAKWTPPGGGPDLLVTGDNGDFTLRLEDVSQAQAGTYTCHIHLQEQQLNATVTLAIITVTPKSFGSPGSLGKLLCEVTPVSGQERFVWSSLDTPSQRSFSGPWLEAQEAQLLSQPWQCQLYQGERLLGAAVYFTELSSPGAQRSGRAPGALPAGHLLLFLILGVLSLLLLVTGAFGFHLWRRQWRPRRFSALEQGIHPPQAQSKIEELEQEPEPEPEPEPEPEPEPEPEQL
Procedure: Briefly the antibodies were incubated with 2×10⁵ target cells at 4° C. for 1 hour. After washing, fluorescence labeled anti-mouse IgG 2nd antibody (Life Technologies) was added and incubated at 4° C. for 1 hour. Geometric median fluorescence intensity (MFI) was detected and EC₅₀ was calculated using GraphPad Prism9.0.
MFI was detected and EC₅₀ was calculated using GraphPad Prism9.0.

[4] = target: T1, mFc tagged human LAG3 ECD recombinant …; experiment: competitive FACS: mFc-LAG3 ECD binding to Raji cells (MHC II)
Procedure: Activity of the purified chimeric antibodies to block LAG3 and MHC II interaction was determined by competitive FACS assay. […] After washing, dye labeled anti-mouse Fc 2nd antibody (Sigma) was added and incubated at 37° C. for 1 hour. Fluorescence intensity was detected.

[5] = target: T4, hFc tagged human LAG3 ECD recombinant protein (human, UniProt P18627 23-450); experiment: competitive ELISA format II: biotin hFc-LAG3 ECD binding to coated His-FGL1
T4 construct: range 23-450; also called biotin labelled hFc tagged human LAG3 ECD; not shown: human IgG Fc tag
T4 sequence (looked up): T1 sequence (looked up)
Procedure: (§1) After washing, HRP labeled anti-His 2nd antibody (Sigma) was added and incubated at 37° C. for 1 hour. Then, 100 μl/well of TMB solution (Biotechnology) was added. After incubation for 15 minutes at room temperature, the reaction was stopped by the addition of 50 μl of 1N HCl. OD 450 nm was read. […] After washing, HRP labeled anti-SA 2nd antibody (Sigma) was added and incubated at 37° C. for 1 hour. Then, 100 μl/well of TMB solution (Biotechnology) was added. After incubation for 15 minutes at room temperature, the reaction was stopped by the addition of 50 μl of 1N HCl. OD 450 nm was read. […] The competition assay of format III is a competitive FACS assay. […] After washing, dye labeled anti-His 2nd antibody (Sigma) was added and incubated at 37° C. for 1 hour. Fluorescence intensity was detected.

[6] = target: T3, human LAG3, full length, stably …; experiment: competitive FACS format III: His-FGL1 binding to 293F-human LAG3 cells
Procedure: as §1

[7] = target: T4, hFc tagged human LAG3 ECD recombinant …; experiment: competitive ELISA format II: biotin labeled hFc tagged LAG3 ECD binding to plate coated His tagged human FGL1; 023c run beside 027c and 047c
Procedure: as §1

B1: 023c (antibody, human IgG4, V domains shown)
VH: QIQLVQSGPVLKKPGETVKISCKASGYTFTESPMNWVKQAPGRGFKWMGMIYTDTGEPTYAEEFKGRFAFSLETSASTAYLQINNLKSEDTATYFCVSDYGSILYWYFDVWGTGTTVTVSS
VL: DIVMTQSHKFMSTSVGDRVSITCKASQDVSTAVAWYQQTPGQSPKLLIYSASYRYTGVPDRFTGSGSGTDFTFTISSVQAEDLAVYYCQQHYNSPPTFGAGTKLELK
notes: human IgG4 S228P / kappa chimeric antibody; also called chimeric antibody 023; ES005-023c; not shown: human kappa light chain constant region (pcDNA3.4-hIgGk vector)
In the case of B1, the “%Blocking at 4 nM” value [1] is reported as 27.8%, the “%Blocking at 20 nM” value [1] is reported as 94.4% and the “%Blocking at 100 nM” value [1] is reported as 94.8%. It also gave a Kd [2] of 0.0775 nM, a koff [2] of 0.000441 s⁻¹ and a kon [2] of 5.68e+06 M⁻¹ s⁻¹. For the same binder, the EC50 [3] was 0.26 nM, the “TOP MFI” value [3] was 3430 and the IC50 [4] was 6.2 nM. The “TOP blocking (%)” value [4] was 99.2%, the IC50 [5] was 1.47 nM and the “TOP blocking (%)” value [5] was 86.8%. The “Blocking ratio at 200 nM (%)” value [6] was 29% and the “IC50 (read off the curve)” value [7] was ~0.3 µg/mL.

Reference: patent US20250313625A1 (ELPISCIENCE SUZHOU BIOPHARMA, published 2025)
